Experimental data from article doi:10.1101/2022.11.04.515170.

T1: GFP-SNX4, O95219
T1 chain: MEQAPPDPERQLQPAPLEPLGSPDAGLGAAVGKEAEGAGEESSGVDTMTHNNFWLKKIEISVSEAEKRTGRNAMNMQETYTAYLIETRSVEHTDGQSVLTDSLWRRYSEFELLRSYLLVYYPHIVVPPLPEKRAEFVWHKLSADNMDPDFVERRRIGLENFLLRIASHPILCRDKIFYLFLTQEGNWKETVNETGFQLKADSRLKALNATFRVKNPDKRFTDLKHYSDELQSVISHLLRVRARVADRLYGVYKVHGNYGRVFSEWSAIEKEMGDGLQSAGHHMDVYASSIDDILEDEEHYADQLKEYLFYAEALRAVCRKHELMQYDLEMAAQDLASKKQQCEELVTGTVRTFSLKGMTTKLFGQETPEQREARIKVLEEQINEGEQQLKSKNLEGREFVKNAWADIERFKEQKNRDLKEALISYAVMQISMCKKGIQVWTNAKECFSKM

B1: HA-SNX32 FL, Q86XE0 1-403 (natural protein)
chain: METYAEVGKEGKPSCASVDLQGDSSLQVEISDAVSERDKVKFTVQTKSCLPHFAQTEFSVVRQHEEFIWLHDAYVENEEYAGLIIPPAPPRPDFEASREKLQKLGEGDSSVTREEFAKMKQELEAEYLAIFKKTVAMHEVFLQRLAAHPTLRRDHNFFVFLEYGQDLSVRGKNRKELLGGFLRNIVKSADEALITGMSGLKEVDDFFEHERTFLLEYHTRIRDACLRADRVMRAHKCLADDYIPISAALSSLGTQEVNQLRTSFLKLAELFERLRKLEGRVASDEDLKLSDMLRYYMRDSQAAKDLLYRRLRALADYENANKALDKARTRNREVRPAESHQQLCCQRFERLSDSAKQELMDFKSRRVSSFRKNLIELAELELKHAKASTLILRNTLVALKGEP

What was measured:
GFP-SNX4 = GFP-SNX4 (UniProt O95219); experiment: co-IP
GFP-SNX4, O95219 = target: T1, GFP-SNX4, O95219; experiment: co-IP; conditions: remark: other sources report otherwise

Molecule | ratio of HA to GFP band intensity (GFP-SNX4) | ratio of HA to GFP band intensity (GFP-SNX4, O95219)
HA-SNX32 A226E (from UniProt Q86XE0 1-403) (natural protein) | 0.65 | –
B1 | – | 0.92
